Results: article PMC7711741
Read-outs that look alike come from different tables or passages of the source. One block for each substance: values may come before it.

Experiments:
[1] = target: mupain-1 (synthetic construct)
[2] = target: mupain-1 (synthetic construct); details: cited from earlier work
[3] = target: mupain-1 (synthetic construct); details: cited from earlier work; remark: listed apart in the source
[4] = target: urokinase-type plasminogen activator (muPA) (Mus musculus) (UniProt P06869); details: cited from earlier work
[5] = target: mupain-1 (synthetic construct); remark: listed apart in the source
[6] = target: mupain-1 (synthetic construct); assay: SPR
[7] = target: mupain-1 (synthetic construct); remark: listed apart in the source
[8] = target: mupain-1 (synthetic construct); details: cited from earlier work; remark: listed apart in the source
[9] = target: mupain-1 (synthetic construct); details: cited from earlier work; remark: listed apart in the source
[10] = target: mupain-1 (synthetic construct); details: cited from earlier work; remark: listed apart in the source
[11] = target: mupain-1 (synthetic construct); details: cited from earlier work; remark: listed apart in the source

Chain of plasma kallikrein, P03952 (P03952 391-638): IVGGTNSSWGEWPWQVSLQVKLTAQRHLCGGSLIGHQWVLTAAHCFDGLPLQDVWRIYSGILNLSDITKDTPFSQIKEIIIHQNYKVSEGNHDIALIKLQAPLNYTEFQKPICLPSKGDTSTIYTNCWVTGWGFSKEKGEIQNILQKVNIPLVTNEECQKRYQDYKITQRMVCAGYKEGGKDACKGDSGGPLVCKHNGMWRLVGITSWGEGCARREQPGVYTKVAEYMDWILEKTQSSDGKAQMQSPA
Chain of plasmin (from UniProt P00747) (P00747 581-810): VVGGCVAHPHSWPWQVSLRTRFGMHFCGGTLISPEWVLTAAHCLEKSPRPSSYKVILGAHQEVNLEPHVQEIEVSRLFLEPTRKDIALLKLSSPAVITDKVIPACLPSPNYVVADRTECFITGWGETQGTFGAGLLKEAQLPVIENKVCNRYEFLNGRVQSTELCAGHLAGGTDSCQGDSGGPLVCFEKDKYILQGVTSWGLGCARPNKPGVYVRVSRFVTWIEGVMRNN
Chain of urokinase-type plasminogen activator (muPA) (Mus musculus) (P06869 180-433): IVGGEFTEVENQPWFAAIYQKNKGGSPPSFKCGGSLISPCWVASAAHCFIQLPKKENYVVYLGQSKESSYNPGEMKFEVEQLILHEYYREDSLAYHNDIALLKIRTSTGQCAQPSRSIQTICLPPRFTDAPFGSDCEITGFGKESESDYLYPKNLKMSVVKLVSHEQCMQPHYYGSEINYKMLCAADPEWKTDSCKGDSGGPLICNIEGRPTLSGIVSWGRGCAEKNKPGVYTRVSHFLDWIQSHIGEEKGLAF
Chain of beta-trypsin (P00760 24-246): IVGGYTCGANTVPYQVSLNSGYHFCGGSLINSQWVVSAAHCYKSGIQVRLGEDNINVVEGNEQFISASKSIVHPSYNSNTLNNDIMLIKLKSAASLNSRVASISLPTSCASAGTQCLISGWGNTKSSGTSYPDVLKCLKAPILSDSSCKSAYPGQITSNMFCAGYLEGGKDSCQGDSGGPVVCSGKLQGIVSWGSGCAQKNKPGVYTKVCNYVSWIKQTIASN
Chain of urokinase-type plasminogen activator (P06869 157-178): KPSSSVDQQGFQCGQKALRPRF
Chain of factor XIa catalytic domain (P03951 388-625): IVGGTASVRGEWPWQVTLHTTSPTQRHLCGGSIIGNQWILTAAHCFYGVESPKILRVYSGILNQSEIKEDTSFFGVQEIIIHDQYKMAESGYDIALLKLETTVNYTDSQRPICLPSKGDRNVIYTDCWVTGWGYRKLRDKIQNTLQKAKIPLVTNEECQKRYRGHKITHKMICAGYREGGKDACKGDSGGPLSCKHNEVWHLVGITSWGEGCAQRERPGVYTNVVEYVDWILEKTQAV
Chain of plasmin (from UniProt P20918) (P20918 582-812): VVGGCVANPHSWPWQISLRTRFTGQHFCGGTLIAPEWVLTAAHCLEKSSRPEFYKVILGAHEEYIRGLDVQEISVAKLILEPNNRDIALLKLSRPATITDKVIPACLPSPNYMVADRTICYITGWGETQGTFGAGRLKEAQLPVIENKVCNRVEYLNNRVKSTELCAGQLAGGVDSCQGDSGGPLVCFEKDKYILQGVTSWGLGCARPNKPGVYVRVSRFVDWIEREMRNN
Chain of plasma kallikrein, P26262 (P26262 391-638): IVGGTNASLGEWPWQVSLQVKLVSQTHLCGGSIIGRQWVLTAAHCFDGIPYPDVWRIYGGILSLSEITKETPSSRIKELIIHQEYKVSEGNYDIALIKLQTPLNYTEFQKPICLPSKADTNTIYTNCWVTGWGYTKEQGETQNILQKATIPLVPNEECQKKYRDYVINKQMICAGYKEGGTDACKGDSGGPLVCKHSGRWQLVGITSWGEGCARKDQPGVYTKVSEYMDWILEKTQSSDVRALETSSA

Ki [1]: > 1000 µM
Substance: KLK1, P06870

Substance: beta-trypsin (from UniProt P00760)
Ki [2]: 20.7 µM

Substance: factor XIa catalytic domain (from UniProt P03951)
Ki [3]: > 1000 µM

Substance: mupain-1
Ki [4]: 0.55 µM

Ki [5]: > 1000 µM
Kd [6]: > 1000 µM
Substance: plasma kallikrein, P03952

Ki [7]: > 1000 µM
Substance: plasma kallikrein, P26262

Substance: plasmin (from UniProt P00747)
Ki [8]: > 1000 µM

Substance: plasmin (from UniProt P20918)
Ki [9]: > 1000 µM

Substance: urokinase-type plasminogen activator (from UniProt P00749)
Ki [10]: > 1000 µM

Substance: urokinase-type plasminogen activator (from UniProt P06869)
Ki [11]: 0.55 µM
